{"source": "patent US12698494", "proteins": {"B1": {"name": "ADAMTS13 variant NGLY3 + R568A/Y665A + L591A/R636A/L637A/L668A (protein)", "chain": "AAGGILHLELLVAVGPDVFQAHQEDTERYVLTNLNIGAELLRDPSLGAQFRVHLVKMVILTEPEGAPNITANLTSSLLSVCGWSQTINPEDDTDPGHADLVLYITRFDLELPDGNRQVRGVTQLGGACSPTWSCLITEDTGFDLGVTIAHEIGHSFGLEHDGAPGSGCGPSGHVMASDGAAPRAGLAWSPCSRRQLLSLLSAGRARCVWDPPRPQPGSAGHPPDAQPGLYYSANEQCRVAFGPKAVACTFAREHLDMCQALSCHTDPLDQSSCSRLLVPLLDGTECGVEKWCSKGRCRSLVELTPIAAVHGRWSSWGPRSPCSRSCGGGVVTRRRQCNNPRPAFGGRACVGADLQAEMCNTQACEKTQLEFMSQQCARTDGQPLRSSPGGASFYHWGAAVPHSQGDALCRHMCRAIGESFIMKRGDSFLDGTRCMPSGPREDGTLSLCVSGSCRTFGCDGRMDSQQVWDRCQVCGGDNSTCSPRKGSFTAGRAAEYVTFLTVTPNLTSVYIANHRPAFTHLAVRIGGRYVVAGNMSISPNTTYPSLLEDGRVEYRVALTEDAAPRLEEIRIWGPLQEDADIQVYRRYGEEAGNATRPDITFTYFQPKPRQAWVWAAVRGPCSVSCGAGLRWVNYSCLDQARKELVETVQCQGSQQPPAWPEACVLEPCPPYWAVGDFGPCSASCGGGLRERPVRCVEAQGSLLKTLPPARCRAGAQQPAVALETCNPQPCPARWEVSEPSSCTSAGGAGLALENETCVPGADGLEAPVTEGPGSVDEKLPAPEPCVGMSCPPGWGHLDATSAGEKAPSPWGSIRTGAQAAHVWTPAAGSCSVSCGRGLMELRFLCMDSALRVPVQEELCGLASKPGSRREVCQAVPCPARWQYKLAACSVSCGRGVVRRILYCARAHGEDDGEEILLDTQCQGLPRPEPQEACSLEPCPPRWKVMSLGPCSASCGLGTARRSVACVQLDQGQDVEVDEAACAALVRPEASVPCLIADCTYRWHVGTWMECSVSCGDGIQRRRDTCLGPQAQAPVPADFCQHLPKPVTVRGCWAGPCVGQGTPSLVPHEEAAAPGRTTATPAGASLEWSQARGLLFSPAPQPRRLLPGPQENSVQSSACGRQHLEPTGTIDMRGPGQADCAVAIGRPLGEVVTLRVLESSLNCSAGDMLLLWGRLTWRKMCRKLLDMTFSSKTNTLVVRQRCGRPGGGVLLRYGSQLAPETFYRECDMQLFGPWGEIVSPSLSPATSNAGGCRLFINVAPHARIAIHALATNMGAGTEGANASYILIRDTHSLRTTAFHGQQVLYWESESSQAEMEFSEGFLKAQASLRGQYWTLQSWVPEMQDPQSWKGKEGT"}, "B2": {"name": "Full-length ADAMTS13 variant NGLY6 (636RLPRL640 to 636RNASL640) (protein)", "chain": "AAGGILHLELLVAVGPDVFQAHQEDTERYVLTNLNIGAELLRDPSLGAQFRVHLVKMVILTEPEGAPNITANLTSSLLSVCGWSQTINPEDDTDPGHADLVLYITRFDLELPDGNRQVRGVTQLGGACSPTWSCLITEDTGFDLGVTIAHEIGHSFGLEHDGAPGSGCGPSGHVMASDGAAPRAGLAWSPCSRRQLLSLLSAGRARCVWDPPRPQPGSAGHPPDAQPGLYYSANEQCRVAFGPKAVACTFAREHLDMCQALSCHTDPLDQSSCSRLLVPLLDGTECGVEKWCSKGRCRSLVELTPIAAVHGRWSSWGPRSPCSRSCGGGVVTRRRQCNNPRPAFGGRACVGADLQAEMCNTQACEKTQLEFMSQQCARTDGQPLRSSPGGASFYHWGAAVPHSQGDALCRHMCRAIGESFIMKRGDSFLDGTRCMPSGPREDGTLSLCVSGSCRTFGCDGRMDSQQVWDRCQVCGGDNSTCSPRKGSFTAGRAREYVTFLTVTPNLTSVYIANHRPLFTHLAVRIGGRYVVAGKMSISPNTTYPSLLEDGRVEYRVALTEDRNASLEEIRIWGPLQEDADIQVYRRYGEEYGNLTRPDITFTYFQPKPRQAWVWAAVRGPCSVSCGAGLRWVNYSCLDQARKELVETVQCQGSQQPPAWPEACVLEPCPPYWAVGDFGPCSASCGGGLRERPVRCVEAQGSLLKTLPPARCRAGAQQPAVALETCNPQPCPARWEVSEPSSCTSAGGAGLALENETCVPGADGLEAPVTEGPGSVDEKLPAPEPCVGMSCPPGWGHLDATSAGEKAPSPWGSIRTGAQAAHVWTPAAGSCSVSCGRGLMELRFLCMDSALRVPVQEELCGLASKPGSRREVCQAVPCPARWQYKLAACSVSCGRGVVRRILYCARAHGEDDGEEILLDTQCQGLPRPEPQEACSLEPCPPRWKVMSLGPCSASCGLGTARRSVACVQLDQGQDVEVDEAACAALVRPEASVPCLIADCTYRWHVGTWMECSVSCGDGIQRRRDTCLGPQAQAPVPADFCQHLPKPVTVRGCWAGPCVGQGTPSLVPHEEAAAPGRTTATPAGASLEWSQARGLLFSPAPQPRRLLPGPQENSVQSSACGRQHLEPTGTIDMRGPGQADCAVAIGRPLGEVVTLRVLESSLNCSAGDMLLLWGRLTWRKMCRKLLDMTFSSKTNTLVVRQRCGRPGGGVLLRYGSQLAPETFYRECDMQLFGPWGEIVSPSLSPATSNAGGCRLFINVAPHARIAIHALATNMGAGTEGANASYILIRDTHSLRTTAFHGQQVLYWESESSQAEMEFSEGFLKAQASLRGQYWTLQSWVPEMQDPQSWKGKEGTHHHHHH"}, "B3": {"name": "Full-length ADAMTS13 variant NGLY3 (607GKMSI611 to 607GNMSI611; K608N) (protein)", "chain": "B2 chain with K534N, N563L, A564P, S565R"}, "B4": {"name": "Full-length ADAMTS13 variant NGLY1 (567AREYV571 to 567ANETV571) (protein)", "chain": "B2 chain with R494N, Y496T, N563L, A564P, S565R"}, "B5": {"name": "Full-length ADAMTS13 variant NGLY5 (635DRLPR639 to 635DNLSR639) (protein)", "chain": "B2 chain with R562N, N563L, A564S, S565R"}, "B6": {"name": "Full-length wild-type ADAMTS13 (1427 amino acids) (protein)", "chain": "B2 chain with N563L, A564P, S565R"}, "B7": {"name": "Full-length ADAMTS13 variant NGLY2 (590PLFTH594 to 590PNFTH594) (protein)", "chain": "B2 chain with L517N, N563L, A564P, S565R"}, "B8": {"name": "Full-length ADAMTS13 variant NGLY4 (608KMSIS612 to 608KNSTS612) (protein)", "chain": "B2 chain with M535N, I537T, N563L, A564P, S565R"}}, "key": {"[1]": {"biological_target": "T1, FRETS-VWF73 fluorogenic substrate, P04275", "T1 chain": "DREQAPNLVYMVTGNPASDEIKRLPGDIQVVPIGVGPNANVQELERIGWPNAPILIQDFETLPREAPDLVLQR"}, "[2]": {"biological_target": "Von Willebrand Factor (VWF) multimers, P04275"}}, "note": "Numbering of substitutions follows the chain as printed. In names and notes the source's numbering stands.", "data": [{"protein": "B1", "values": [{"measurement": "Activity level (% relative to wild type ADAMTS13) VWFFRETS73 (% relative to wild type ADAMTS13)", "setting": "[1]", "result": 40}]}, {"protein": "B2", "values": [{"measurement": "FRETS-VWF73 activity relative to wild-type ADAMTS13", "setting": "[1]", "result": "NGLY6 showed a reduced activity when compared to wild-type ADAMTS13"}]}, {"protein": "B3", "values": [{"measurement": "Ability to process VWF multimers under denaturing conditions", "setting": "[2]", "result": "++++++"}, {"measurement": "VWF multimer assay (urea-denatured recombinant VWF)", "setting": "[2]", "result": "The VWF processing activity of NGLY3 and NGLY4 was similar to that of the wild-type ADAMTS13"}, {"measurement": "vortex assay: processing of VWF multimers under shear stress", "setting": "[2]", "result": "Under these conditions NGLY3 was fully active"}, {"measurement": "Activity level (% relative to wild type ADAMTS13) VWFFRETS73 (% relative to wild type ADAMTS13)", "setting": "[1]", "result": 125}, {"measurement": "FRETS-VWF73 activity relative to wild-type ADAMTS13", "setting": "[1]", "result": "The ability of NGLY1, 2, 3 and 4 was similar or higher when compared to wild-type ADAMTS13"}]}, {"protein": "B4", "values": [{"measurement": "FRETS-VWF73 activity relative to wild-type ADAMTS13", "setting": "[1]", "result": "The ability of NGLY1, 2, 3 and 4 was similar or higher when compared to wild-type ADAMTS13"}]}, {"protein": "B5", "values": [{"measurement": "VWF multimer assay (urea-denatured recombinant VWF)", "setting": "[2]", "result": "a reduced VWF processing activity was observed for NGLY2 and NGLY5"}, {"measurement": "FRETS-VWF73 activity relative to wild-type ADAMTS13", "setting": "[1]", "result": "The activity of NGLY5 was slightly reduced when compared to wild type ADAMTS13"}]}, {"protein": "B6", "values": [{"measurement": "Ability to process VWF multimers under denaturing conditions", "setting": "[2]", "result": "++++++"}, {"measurement": "vortex assay: processing of VWF multimers under turbulent flow", "setting": "[2]", "result": "resulted in loss of the high molecular weight multimers from the sample"}, {"measurement": "Activity level (% relative to wild type ADAMTS13) VWFFRETS73 (% relative to wild type ADAMTS13)", "setting": "[1]", "result": 100}]}, {"protein": "B7", "values": [{"measurement": "VWF multimer assay (urea-denatured recombinant VWF)", "setting": "[2]", "result": "a reduced VWF processing activity was observed for NGLY2 and NGLY5"}, {"measurement": "FRETS-VWF73 activity relative to wild-type ADAMTS13", "setting": "[1]", "result": "The ability of NGLY1, 2, 3 and 4 was similar or higher when compared to wild-type ADAMTS13"}]}, {"protein": "B8", "values": [{"measurement": "VWF multimer assay (urea-denatured recombinant VWF)", "setting": "[2]", "result": "The VWF processing activity of NGLY3 and NGLY4 was similar to that of the wild-type ADAMTS13"}, {"measurement": "FRETS-VWF73 activity relative to wild-type ADAMTS13", "setting": "[1]", "result": "The ability of NGLY1, 2, 3 and 4 was similar or higher when compared to wild-type ADAMTS13"}]}]}
